# Laboratory results published in article PMC3393671, “A Toxoplasma gondii Pseudokinase Inhibits Host IRG Resistance Proteins” (PLoS Biology, 2012).
# T1: Irga6 (GST tag cleaved off) (mouse, UniProt Q9QZ85 1-411)
# T1 construct: Irga6, mouse IRG protein, cleaved from the GST fusion as a near-native protein; Lacks the N-terminal myristoylation; In one NMR experiment [13C]-Met labelled; also called wt Irga6; purified Irga6; source: E. coli BL21 (pGEX-4T-2), purified (Glutathione Sepharose, thrombin cleavage, Superdex 75); not shown: GST, N-terminal, cleaved
# T1 sequence: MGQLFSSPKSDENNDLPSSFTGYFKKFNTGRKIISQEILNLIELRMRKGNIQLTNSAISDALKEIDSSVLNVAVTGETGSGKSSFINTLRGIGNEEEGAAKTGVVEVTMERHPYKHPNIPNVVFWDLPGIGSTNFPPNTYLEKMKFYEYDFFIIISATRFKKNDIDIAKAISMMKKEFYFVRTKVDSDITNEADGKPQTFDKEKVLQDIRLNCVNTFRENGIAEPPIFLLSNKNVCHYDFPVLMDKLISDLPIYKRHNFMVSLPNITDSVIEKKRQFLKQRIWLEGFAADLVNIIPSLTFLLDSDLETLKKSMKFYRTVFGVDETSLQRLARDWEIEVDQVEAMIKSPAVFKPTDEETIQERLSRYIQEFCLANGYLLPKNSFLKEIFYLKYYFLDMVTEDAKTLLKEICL
# Molecular target: T1, Irga6 (GST tag cleaved off)
# Assay: NMR titration; 13C-1H HSQC of [13C]-Met labelled ROP5BI without or with unlabeled Irga6; 30°C, 800 MHz
# Conditions: both partners purified
binder,measurement,value
"ROP5BI pseudokinase domain (domain or fragment, Toxoplasma gondii (type I), pseudokinase domain of ROP5 isoform B of a type I T. gondii strain (ROP5BI); In one NMR experiment [13C]-labelled on the Cε of methionines; also called purified pseudokinase domain protein ROP5BI; source: purified) EAGDSFMRDLLKREEELIGYCREEALKEPAAMVEAVTATVWPQNAETTVDSLLSQGERKLKLVEPLRVGDRSVVFLVRDVERLEDFALKVFTMGAENSRSELERLHEATFAAARLLGESPEEARDRRRLLLPSDAVAVQSQPPFAQLSPGQDDYAVANYLLLMPAASVDLELLFSTLDFVYVFRGDEGILALHILTAQLIRLAANLQSKGLVHGHFTPDNLFIMPDGRLMLGDVSALWKVGTRGPASSVPVTYAPREFLNASTATFTHALNAWQLGLSIYRVWCLFLPFGLVTPGIKGSWKRPSLRVPGTDSLAFGSCTPLPDFVKTLIGRFLNFDRRRRLLPLEAMETPEFLQLQNEISSSLSTGQ",binding result,binds
